The target in assay [1] is T1, HLA-B*07:02 (human).
T1 construct: Peptide-receptive MHC class I monomer made by UV cleavage of a UV-sensitive ligand
Briefly: UV ligand exchange ELISA; exchange yield grade. An excerpt: (§1) Candidate peptides for T cell based therapies according to the present invention were further tested for their MHC binding capacity (affinity). The individual peptide-MHC complexes were produced by UV-ligand exchange, where a UV-sensitive peptide is cleaved upon UV-irradiation, and exchanged with the peptide of interest as analyzed. Only peptide candidates that can effectively bind and stabilize the peptide-receptive MHC molecules prevent dissociation of the MHC complexes. To determine the yield of the exchange reaction, an ELISA was performed based on the detection of the light chain (β2m) of stabilized MHC complexes. The assay was performed as generally described in Rodenko et al. (Rodenko et al., 2006).
(§2) 96 well MAXISorp plates (NUNC) were coated over night with 2 ug/ml streptavidin in PBS at room temperature, washed 4× and blocked for 1 h at 37° C. in 2% BSA containing blocking buffer. Refolded HLA-A*02:01/MLA-001 monomers served as standards, covering the range of 15-500 ng/ml. Peptide-MHC monomers of the UV-exchange reaction were diluted 100-fold in blocking buffer. Samples were incubated for 1 h at 37° C., washed four times, incubated with 2 ug/ml HRP conjugated anti-β2m for 1 h at 37° C., washed again and detected with TMB solution that is stopped with […]. Absorption was measured at 450 nm. Candidate peptides that show a high exchange yield (preferably higher than 50%, most preferred higher than 75%) are generally preferred for a generation and production of antibodies or fragments thereof, and/or T cell receptors or fragments thereof, as they show sufficient avidity to the MHC molecules and prevent dissociation of the MHC complexes.
Background: An ELISA detects its analyte on a solid surface through an enzyme-linked reagent.

The target in assay [2] is T2, HLA-B*44:02 (human).
T2 construct: Peptide-receptive MHC class I monomer made by UV cleavage of a UV-sensitive ligand
Briefly: UV ligand exchange ELISA; exchange yield grade.
Text: as §1, §2

B1: KPKAAKPKA (peptide)
peptide: KPKAAKPKA
As to B1, in assay [1], the peptide exchange yield lay in the range of 20 to 50%.

B2: TENPLTKLL (peptide)
peptide: TENPLTKLL
With B2, the peptide exchange yield in assay [2] was over 75%.

B3: NPLTKLLAI (peptide)
peptide: NPLTKLLAI
B3: the peptide exchange yield in assay [1] was 50 to 75%.

B4: YLNRHLHTW (peptide)
peptide: YLNRHLHTW
For B4, the peptide exchange yield in assay [1] lay within 20 to 50%.

B5: SEGDNVESW (peptide)
peptide: SEGDNVESW
Turning to B5, the peptide exchange yield in assay [2] fell in the range of 50 to 75%.

B6: AEIEIVKEEF (peptide)
peptide: AEIEIVKEEF
Take B6: in assay [2], the peptide exchange yield fell in the range of 20 to 50%.

B7: SPRITFPSL (peptide)
peptide: SPRITFPSL
B7: in assay [1], the peptide exchange yield is over 75%.

B8: EEGNLLRSW (peptide)
peptide: EEGNLLRSW
In assay [2], B8 had a peptide exchange yield of 50 to 75%.

B9: SESPWLHAPSL (peptide)
peptide: SESPWLHAPSL
Molecule B9 gave a peptide exchange yield in assay [1] of 50 to 75%.

B10: NPRYPNYMF (peptide)
peptide: NPRYPNYMF
Take B10: the peptide exchange yield in assay [1] lay within 50 to 75%.

B11: SPKLQIAAM (peptide)
peptide: SPKLQIAAM
Regarding B11, the peptide exchange yield in assay [1] was in the range of 50 to 75%.

B12: EELFRDGVNW (peptide)
peptide: EELFRDGVNW
Consider B12, for which the peptide exchange yield in assay [2] fell in the range of 50 to 75%.

B13: LPARFYQAL (peptide)
peptide: LPARFYQAL
B13 gave a peptide exchange yield in assay [1] of over 75%.

B14: KPKKAPKSPA (peptide)
peptide: KPKKAPKSPA
In turn, B14 came in with a peptide exchange yield in assay [1] of 50 to 75%.

B15: FPAPILRAV (peptide)
peptide: FPAPILRAV
Take B15: in assay [1], the peptide exchange yield fell in the range of 50 to 75%.

B16: YPYQERVFL (peptide)
peptide: YPYQERVFL
B16 displayed a peptide exchange yield in assay [1] of 20 to 50%.

B17: NEQKIVRF (peptide)
peptide: NEQKIVRF
As to B17, the peptide exchange yield in assay [2] was in the range of 10 to 20%.

B18: IPVSRPIL (peptide)
peptide: IPVSRPIL
With B18, the peptide exchange yield in assay [1] fell in the range of 50 to 75%.

B19: GEAVTDHPDRLW (peptide)
peptide: GEAVTDHPDRLW
Turning to B19, the peptide exchange yield in assay [2] is 50 to 75%.

B20: SDAQRPSSF (peptide)
peptide: SDAQRPSSF
Turning to B20, the peptide exchange yield in assay [2] was in the range of 10 to 20%.

B21: VDASIFKAW (peptide)
peptide: VDASIFKAW
B21: the peptide exchange yield in assay [2] fell in the range of 20 to 50%.

B22: EEEGNLLRSW (peptide)
peptide: EEEGNLLRSW
On to B22, for which the peptide exchange yield in assay [2] was 50 to 75%.

B23: KEFFFVKVF (peptide)
peptide: KEFFFVKVF
For the molecule B23, the peptide exchange yield in assay [2] is 50 to 75%.

B24: AEIGEGAYGKVF (peptide)
peptide: AEIGEGAYGKVF
Consider B24, for which the peptide exchange yield in assay [2] lay in the range of 50 to 75%.

B25: KELEDLNKW (peptide)
peptide: KELEDLNKW
In assay [2], B25 gave a peptide exchange yield of 50 to 75%.

B26: GESQDSTTAL (peptide)
peptide: GESQDSTTAL
B26 showed a peptide exchange yield in assay [2] of 20 to 50%.

B27: SPVPSHWMVA (peptide)
peptide: SPVPSHWMVA
With B27, the peptide exchange yield in assay [1] was 50 to 75%.

B28: SPRAINNLVL (peptide)
peptide: SPRAINNLVL
The molecule B28 returned a peptide exchange yield in assay [1] of over 75%.

B29: MPDPHLYHQM (peptide)
peptide: MPDPHLYHQM
On to B29, for which the peptide exchange yield in assay [1] lay in the range of 20 to 50%.

B30: KAFKWFSAL (peptide)
peptide: KAFKWFSAL
With B30, in assay [1], the peptide exchange yield lay in the range of 20 to 50%.

B31: YPIALTRAEM (peptide)
peptide: YPIALTRAEM
For B31, the peptide exchange yield in assay [1] was in the range of 50 to 75%.

B32: RPMTPTQIGPSL (peptide)
peptide: RPMTPTQIGPSL
As to B32, the peptide exchange yield in assay [1] was in the range of 50 to 75%.

B33: NEDKGTKAW (peptide)
peptide: NEDKGTKAW
In assay [2], B33 had a peptide exchange yield of 20 to 50%.

B34: KPKAAKPKKAAA (peptide)
peptide: KPKAAKPKKAAA
B34: the peptide exchange yield in assay [1] was 20 to 50%.

B35: QENQAETHAW (peptide)
peptide: QENQAETHAW
In the case of B35, the peptide exchange yield in assay [2] was in the range of 50 to 75%.

B36: RMPPFTQAF (peptide)
peptide: RMPPFTQAF
For B36, the peptide exchange yield in assay [2] was 20 to 50%.

B37: RPRGLALVL (peptide)
peptide: RPRGLALVL
As to B37, in assay [1], the peptide exchange yield was 50 to 75%.

B38: KPLFKVSTF (peptide)
peptide: KPLFKVSTF
As for B38, in assay [1], the peptide exchange yield is 20 to 50%.

B39: KPKAAKPKAA (peptide)
peptide: KPKAAKPKAA
In assay [1], B39 returned a peptide exchange yield of 20 to 50%.

B40: KPKAAKPKTA (peptide)
peptide: KPKAAKPKTA
In turn, B40 showed a peptide exchange yield in assay [1] of 20 to 50%.

B41: KARKSAGAA (peptide)
peptide: KARKSAGAA
In assay [1], B41 registered a peptide exchange yield of 50 to 75%.

B42: RPNGNSLFTSA (peptide)
peptide: RPNGNSLFTSA
As for B42, the peptide exchange yield in assay [1] fell in the range of 50 to 75%.

B43: IPVSHPVL (peptide)
peptide: IPVSHPVL
Regarding B43, the peptide exchange yield in assay [1] lay in the range of 20 to 50%.

B44: IPASHPVL (peptide)
peptide: IPASHPVL
In assay [1], B44 gave a peptide exchange yield of 20 to 50%.

B45: APINKAGSFL (peptide)
peptide: APINKAGSFL
In turn, B45 showed a peptide exchange yield in assay [1] of over 75%.

B46: SEDHSGSYW (peptide)
peptide: SEDHSGSYW
Regarding B46, the peptide exchange yield in assay [2] fell in the range of 50 to 75%.

B47: LPFGKIPIL (peptide)
peptide: LPFGKIPIL
In assay [1], B47 displayed a peptide exchange yield of 20 to 50%.

B48: QEVDASIFKAW (peptide)
peptide: QEVDASIFKAW
For the molecule B48, in assay [2], the peptide exchange yield lay within 50 to 75%.

B49: REAGFQVKAY (peptide)
peptide: REAGFQVKAY
In assay [2], B49 registered a peptide exchange yield of 50 to 75%.

B50: IPANTEKASF (peptide)
peptide: IPANTEKASF
For the molecule B50, the peptide exchange yield in assay [1] was in the range of 20 to 50%.

B51: EENTLVQNY (peptide)
peptide: EENTLVQNY
Consider B51, for which the peptide exchange yield in assay [2] was 20 to 50%.

B52: LPLSMEAKI (peptide)
peptide: LPLSMEAKI
In the case of B52, the peptide exchange yield in assay [1] lay in the range of 20 to 50%.

B53: AESEDLAVHLY (peptide)
peptide: AESEDLAVHLY
In turn, B53 yielded a peptide exchange yield in assay [2] of 20 to 50%.

B54: APFGFLGMQSL (peptide)
peptide: APFGFLGMQSL
Molecule B54 gave a peptide exchange yield in assay [1] of 50 to 75%.

B55: NEIEHIPVW (peptide)
peptide: NEIEHIPVW
Consider B55, for which, in assay [2], the peptide exchange yield was in the range of 50 to 75%.

B56: KEFELRSSW (peptide)
peptide: KEFELRSSW
For B56, in assay [2], the peptide exchange yield is 50 to 75%.

B57: FPETVNNLL (peptide)
peptide: FPETVNNLL
In turn, B57 showed a peptide exchange yield in assay [1] of 20 to 50%.

B58: AESEDLAVHL (peptide)
peptide: AESEDLAVHL
In assay [2], B58 showed a peptide exchange yield of 20 to 50%.

B59: KEKFPINGW (peptide)
peptide: KEKFPINGW
The molecule B59 returned a peptide exchange yield in assay [2] of 50 to 75%.

B60: KAKKPAGAA (peptide)
peptide: KAKKPAGAA
B60: in assay [1], the peptide exchange yield was in the range of 20 to 50%.

Values taken from patent US20180291083A1 (IMMATICS BIOTECHNOLOGIES, published 2018).
